From the supplement of paper PMC9170038

These sequences were tested on MS2 coat protein (assay: apparent KD of MS2 coat protein; higher = weaker reporter binding). Settings: Eterna round: R107; input ligand: theophylline 20 uM.
How it was run: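 SNAP-549-labelled MS2 coat protein was titrated onto designed RNA switches that had been transcribed on-chip from Illumina sequencing clusters. Amounts doubled from 0.7 or 1.5 nM to 3 µM in 100 mM Tris-HCl pH 7.5, 80 mM KCl, 4 mM MgCl2, with constant ligand or without. Apparent KD is the median per design of normalised cluster binding-curve fits.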

Sequence	apparent KD of MS2 coat protein [nM]
GCAUCCUAGUCGGCCGCCACUGCAGUAGCACCUGCUACAUGGAAACAUGAGGAUCACCCAUGUAGCAGGACCGGGACUAGGAUGC [(Trp1)-(TM)''-(TM)'-(Ms2)-(Trp2)_Design8]	733
ACGCUGAUUGAUUACAAUCAGCGAAAAGAUACCAGUGGGUAAUCCCACCCUUGGCAGCUUAAACAAGAGGAUCACCCUUGUGGUA [TheoAS 16 #MS2Right #BothOrNeither #AlternativeMS2]	370
GGCACCAGGAGAAGGAGCGUGAAGACAUGAGGAUCACCCAUGUAGAGGCCCGUACCGGGUUCGCAGGUAGGUCGCUCCUGGUGCC [#1 Same State - Arginine B Attempt #14 (HarryS)]	38.1
UAGGACAUGAGGAUCACCCAUGUUGUACGGCGAGGACCGGUACGGCCGCCACUCGAGGCGUAAGUAGUAAAGAAUCUGAUUCAAU [theeternabot_sameState_MS2_Trp_A_4]	40.9
AAUAAGCAGCUGCAUCAUGGGUGAGCAGAUACCAGCUAGGAAACUAGCCCUUGGCAGCUGCAACAUGAGGAUCACCCAUGUAAUA [(T)'-(M)'-(T1)-(T2)-(M1)-(M2)_Design5]	108
CACGAAAGAUCGGCCGCCACUAUUUGAUGUGUUCUUUCACAUGAGGAUCACCCAUGUUCUUAUUUUAGGACCGGGAUUGAGCGUG [ETB #2]	142
ACGAUACGACAUGAGGAUCACCCAUGUGAUACCAGCGUGGAAACACGCCCUUGGCAGCACAAAUACUCCAGAAACGUAUCGAAAA [MAT - Exclusion Theophlline A - Mod of Eli - D7]	258
AACGUCUUGUCGGCCGCCACUGUAUGGUGCGUGACAUGAAACAUGAGGAUCACCCAUGUAGCAUGCAGGACCGGGACAGUGCCAA [Beriaran]	13.9
AUUAUCAUGGUCAUAUAUAUAUCUUCAGAUACCAGACUAUAUUAAGUCCCUUGGCAGCUGUUACAUGAGGAUCACCCAUGUUAUA [JR_ExcTheophyA_Sub014]	76.1
AAUCAUGAAAACAUGACAUGAGGAUCACUCCGAGGACCGGUACGGCCGCCACUCGCGAGGAGGCACAUGAGGAUCACCCAUGUUA [SS Tryp A #1]	114
GGAUAGAUAGGAGAUACCAGACACAUUAACAUGAGGAUCACCCAUGUGUCUGCACUAAGUGUCCCUUGGCAGCUCGGAGAUCUGA [Same State - Theophylline B]	44.2
CACGAAAGAUCGGCCGCCACUAUUUGAUGUGUUCUUUCACAUGAGGAUCACCCAUGUUCUUUCUUUAGGACCGGGAUUGAGCGUG [ETB #1]	126
AAUUAUCAGUCGGCCGCCACUGACACAUGAGGAUCACCCAUGUAACUUGGGUUAAAUUUAAUAAACAGGACCGGGACAAAGGCUA [JR_ExcTryptoB_Sub010]	189
CUUAUAGUAACUGAUACCAGUGUACUGACAUGAGGAUCACCCAUGUUGGGUUUUGUUGUACACCCUUGGCAGCAGAAUCUAUAAG [AstrosExyTheB#10]	65.7
AGUAUCAGUGGAAGGAGCGUCGCGAAUGUCACAUGAGGAUCACCCAUGUCGUCUUGAGCGCGACAGGUAGGUCGCCACGGUAGGC [SS-ArgB4]	15.9
ACAUGAGGAUCACCCAUGUAACCUAGGGAAGGAGCGGUGUAAGAGCCAGGUAGGUCGCCCACAUGUGGAUCACCCAUGGUGAGGG [#24 Same State - Arginine A]	44.4
UAUCCACAUGAGGAUCACCCAUGUAAGGAAGGAGCGGUGAAUGAACCAGGUAGGUCGCCUUGGUGAGGAUCAUCUAUGGAUUCGU [Exclusion - Arginine A (Freestyle 10)]	65.9
AACAGACGAGACGAUACCAGUCUCUUAGCGCACAUGAGGAUCACCCAUGUUGGCAAGCUCGACCCUUGGCAGCGUACCUUUGAUC [theeternabot_sameState_MS2_Theo_B_6]	34.3

Same assay, conditions: Eterna round: R107; input ligand: theophylline 2 mM

Sequence	apparent KD of MS2 coat protein [nM]
ACGGAUCGGAAACGAUCCGCGGCUAGGGUGCGAGGACCGGUACGGCCGCCACUCGGGUAACAUGAGGAUCACCCAUGUCCGAUUU [ETA NP+V+V2 #13 Same Structure]	143
GGUUACUCUACGGCCGCCACUGAUAAAUAAUAAACCUGUACAUAAACAUGAGGAUCACCCAUGUACAGGACCGGGUAGUGUAACC [Tryptophan B 7]	34.7
GCUAGGUCAUCGGCCGCCACUAACGAUGGCUCCAACAUGAGGAUCACCCAUGUGCCACAUGCGCAUAGGACCGGGAUGACCUAGC [SSTB NP+V+V2 #3]	14.1
GACAUGAGGAUCACCCAUGUUUUCUAUGAAGGAGCGUCGGAAAUGACAGGUAGGUCGCAUGGUAGGACUUGUAUCUUGUAUGUAG [EAA NP+V+V2 #10]	14.7
GCUUGGGUGGCCCAGCCCUGGCAGGGCGAUACCAGCCCGGUAACGGGCCCUUGGCAGCGCACAUGAGGAUCACCCAUGUGGUGCG [#1 Exclusion - Theophylline A Attempt #28 (HarryS)]	85
UCGGACAUGAGGAUCACCCAUGUAAAUCCUCGAGGACCGGUACGGCCGCCACUCGAACGAGUGGCACGCGAGUGCGCACUCGCGU [aEa]	34
UGGGUACCGACGGCCGCCACUGAAUAUAGACAUGAGGAUCACCCAUGUAGAGAUCCUAGAAUAAACAGGACCGGGUCUGGUGCUA [Exclusion Tryptophane B GF5]	293
UCGCUCUGGGUGGAAUCCGGAGAUGUGGAAGGAGCGCUCGAAAGGGCAGGUAGGUCGCCAACGGACAUGAGGAUCACCCAUGUAC [#23 Same State - Arginine A]	39.8
UGACACAUGAGGAUCACCCAUGUCGCGAAACGAGGACCGGUACGGCCGCCACUCGCACAAACUCCUCUCCAGCACCAGCUUUUAG [theeternabot_sameState_MS2_Trp_A_3]	24.2
GCCAUCGGCGGAAGCCGAUGGUAUACGGAAGGAGCGCACGAAAGUGCAGGUAGGUCGCUGAACAUGAGGAUCACCCAUGUAAUAA [#28 Same State - Arginine A]	24.1
GUAUACAUGAGGAUCACCCAUGUGCCAGAAGGAGCGCUGGAAACGGCAGGUAGGUCGCUGGUAGGUCCUCUAUCUAGACGUUCGG [#17 Exclusion - Arginine A]	188
UUGGGUUUGUGAAGGAGCGGGAAAUAUAUAUAUAUAAUCCUAACAUGAGGAUCACCCAUGUCCCAGGUAGGUCGCGCGGGUUUGG [12.N]	65.5
GCAUCCUAGUCGGCCGCCACUGCAGUAGCACCUGCUACAUGGAAACAUGAGGAUCACCCAUGUAGCAGGACCGGGACUAGGAUGC [(Trp1)-(TM)''-(TM)'-(Ms2)-(Trp2)_Design8]	909
ACGCUGAUUGAUUACAAUCAGCGAAAAGAUACCAGUGGGUAAUCCCACCCUUGGCAGCUUAAACAAGAGGAUCACCCUUGUGGUA [TheoAS 16 #MS2Right #BothOrNeither #AlternativeMS2]	238
GGCACCAGGAGAAGGAGCGUGAAGACAUGAGGAUCACCCAUGUAGAGGCCCGUACCGGGUUCGCAGGUAGGUCGCUCCUGGUGCC [#1 Same State - Arginine B Attempt #14 (HarryS)]	27.1
UAGGACAUGAGGAUCACCCAUGUUGUACGGCGAGGACCGGUACGGCCGCCACUCGAGGCGUAAGUAGUAAAGAAUCUGAUUCAAU [theeternabot_sameState_MS2_Trp_A_4]	20.7
